Assay results from patent US20240101684A1 (AIMED BIO, published 2024).
Each block holds one binder with its values, some of them ahead of it.

Legend:
[1] = target: T1, FGFR3 recombinant protein (isoform not given) (Homo sapiens (Human), UniProt P22607 23-375, limits assumed); assay: affinity ELISA on hFGFR3, lower left panel
T1 construct: also called FGFR3 antigen
T1 sequence: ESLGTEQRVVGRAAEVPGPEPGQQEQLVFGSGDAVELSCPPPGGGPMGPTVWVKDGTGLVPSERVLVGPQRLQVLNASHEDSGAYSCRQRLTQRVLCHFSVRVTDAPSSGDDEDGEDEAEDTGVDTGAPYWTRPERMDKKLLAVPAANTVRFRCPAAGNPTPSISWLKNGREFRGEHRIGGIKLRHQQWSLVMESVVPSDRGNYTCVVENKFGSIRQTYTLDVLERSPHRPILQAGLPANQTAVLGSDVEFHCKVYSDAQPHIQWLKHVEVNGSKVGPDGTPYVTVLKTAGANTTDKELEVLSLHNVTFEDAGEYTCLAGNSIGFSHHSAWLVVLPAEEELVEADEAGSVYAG
Description: (§1) Affinity ELISA was performed to determine the binding ability of the produced antibody (IgG) to the FGFR3 antigen. A 96-well plate (4° C., overnight) was coated with […] of FGFR3 antigen and blocked with 3% skim milk (PBS) (room temperature, 1 hour). Then, the plate was treated with previously serially diluted antibody samples in duplicate and triplicate, and reacted at room temperature for 1 hour. Then, the result was washed with PBST 2 to 3 times, treated with the HRP-conjugated anti-human Fab antibody diluted in skim milk (room temperature, 1 hour), and washed again with PBST, and a color reaction (TMB substrate) was performed. Then, O.D. was measured at 450 nm.
The antigen affinity of the synthesized ADC sample (TOPOI-conjugated ADC) was determined by ELISA and the determination was performed in the same manner as the affinity ELISA performed in the present invention. […] In addition, the high purity physical properties of the prepared ADC were identified through SEC-HPLC analysis.

[2] = target: FGFR3(-TACC3) on FGFR3-TACC3 overexpressing brain tumor patient-derived cells (GBM15-682T) (human (brain tumor patient-derived …, UniProt P22607 23-806)); assay: cell-based or functional assay
[3] = target: T2, Domain#3 (human, UniProt P22607); assay: ELISA on Fc-tagged FGFR3 constructs (FGFR3 domain mapping), bar Domain#3
T2 construct: single domain fused to human IgG1 Fc; also called FGFR3 Domain 3; FGFR3 Ig domain III with Fc tag
T2 sequence (Fc fusion chain): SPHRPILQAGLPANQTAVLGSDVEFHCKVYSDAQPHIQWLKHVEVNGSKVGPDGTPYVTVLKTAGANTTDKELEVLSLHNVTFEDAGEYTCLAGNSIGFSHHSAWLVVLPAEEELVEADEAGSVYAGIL
Description: as §1
(§2) FGFR3 is composed of three domains, so each domain (FGFR3 Ig domain I, domain II, domain III) is attached with an Fc tag to analyze the FGFR3-binding domain of the discovered antibody, and produced and purified through a mammalian cell protein expression system (FIG. 9C). Analysis of the binding ability of the antibody to the purified domain was performed in the same manner as the ELISA described above. 1 μg/ml of an antigen was coated and treated with the antibody to induce a TMB color reaction. […] However, the epitope of the comparative antibody is included in domain No. 2, which was conducted according to the present invention. […]

[4] = target: T3, human FGFR3 IIIb recombinant protein (1264-FR-050, R&D) (human, UniProt P22607-2 23-377); assay: SPR, table under the sensorgrams, column KD, row FGFR3-IIIb Human; unit inferred
T3 construct: Bought recombinant antigen; also called rhFGFR3-IIIb; FGFR3-IIIb (Human)
T3 sequence (looked up): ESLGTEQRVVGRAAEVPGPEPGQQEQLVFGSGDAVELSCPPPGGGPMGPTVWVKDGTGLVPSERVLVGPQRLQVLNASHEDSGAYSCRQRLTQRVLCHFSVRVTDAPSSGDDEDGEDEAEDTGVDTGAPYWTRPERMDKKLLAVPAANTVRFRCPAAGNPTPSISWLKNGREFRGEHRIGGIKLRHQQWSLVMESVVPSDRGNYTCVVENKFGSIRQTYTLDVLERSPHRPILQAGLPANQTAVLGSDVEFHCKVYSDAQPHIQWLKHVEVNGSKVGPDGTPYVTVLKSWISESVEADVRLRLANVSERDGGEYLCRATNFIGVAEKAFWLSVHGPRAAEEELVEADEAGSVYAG

[5] = target: T4, monkey FGFR3 recombinant protein (90313-C02H, Sino Biological) (cynomolgus monkey, UniProt A0A2K5V1U5 23-376); assay: SPR, table under the sensorgrams, column KD, row FGFR3 Monkey; unit inferred
T4 construct: Bought recombinant antigen; also called cynomolgus monkey FGFR3; cyno FGFR3
T4 sequence: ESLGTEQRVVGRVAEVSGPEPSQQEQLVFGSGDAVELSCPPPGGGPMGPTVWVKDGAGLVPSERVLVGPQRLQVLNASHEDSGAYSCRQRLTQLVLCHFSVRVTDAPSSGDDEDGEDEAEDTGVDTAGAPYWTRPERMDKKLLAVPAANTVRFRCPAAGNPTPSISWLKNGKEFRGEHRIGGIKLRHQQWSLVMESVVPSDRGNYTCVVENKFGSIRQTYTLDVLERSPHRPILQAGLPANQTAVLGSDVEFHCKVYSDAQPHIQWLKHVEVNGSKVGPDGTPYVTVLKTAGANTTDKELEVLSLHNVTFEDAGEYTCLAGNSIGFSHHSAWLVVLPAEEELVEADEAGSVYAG

[6] = target: T5, human FGFR3 IIIc recombinant protein (766-FR-050, R&D) (human, UniProt P22607 23-375); assay: SPR, table under the sensorgrams, column KD, row FGFR3-IIIc Human; unit inferred
T5 construct: Bought recombinant antigen; also called FGFR3-IIIc (Human)
T5 sequence (looked up): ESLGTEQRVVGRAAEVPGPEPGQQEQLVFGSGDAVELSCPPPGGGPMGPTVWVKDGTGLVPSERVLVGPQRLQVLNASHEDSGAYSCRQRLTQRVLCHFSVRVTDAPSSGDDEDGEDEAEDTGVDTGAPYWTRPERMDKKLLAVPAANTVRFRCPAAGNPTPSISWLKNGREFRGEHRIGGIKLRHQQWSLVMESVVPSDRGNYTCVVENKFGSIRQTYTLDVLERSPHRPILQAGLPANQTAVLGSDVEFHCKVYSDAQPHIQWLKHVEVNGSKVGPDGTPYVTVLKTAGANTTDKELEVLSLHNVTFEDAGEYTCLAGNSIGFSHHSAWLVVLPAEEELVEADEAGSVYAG

[7] = target: T6, FGFR3 Ig domain II with Fc tag (UniProt P22607 151-244); assay: FGFR3 Domain ELISA, AMB302#1, bar Domain#2
T6 construct: domain: FGFR3 Ig domain II; Recombinant domain made in mammalian cells; also called domain No. 2
T6 sequence: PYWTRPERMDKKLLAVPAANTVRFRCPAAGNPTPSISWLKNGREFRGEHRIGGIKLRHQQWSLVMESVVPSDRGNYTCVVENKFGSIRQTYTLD
Description: FGFR3 is composed of three domains, so each domain (FGFR3 Ig domain I, domain II, domain III) is attached with an Fc tag to analyze the FGFR3-binding domain of the discovered antibody, and produced and purified through a mammalian cell protein expression system (FIG. 9C). Analysis of the binding ability of the antibody to the purified domain was performed in the same manner as the ELISA described above. 1 μg/ml of an antigen was coated and treated with the antibody to induce a TMB color reaction. […] However, the epitope of the comparative antibody is included in domain No. 2, which was conducted according to the present invention. In addition, ligands of FGF1 and FGF9, and FGFR3 have been reported to bind to Ig domain II and domain III of FGFR3. Based on this, competition ELISA assay was conducted. […] This supports binding of F309 antibody to the aforementioned FGFR3 Ig domain I (FIG. 9A).
The epitope domain mapping performed above was also performed on the affinity matured antibody F309 #SSM236 (hereinafter referred to as AMB302 #1.2). […] The antibody was also found to have specific binding ability to human/cyno FGFR3 (FIG. 17).

[8] = target: T3, human FGFR3 IIIb recombinant protein …; assay: direct-binding ELISA on rhFGFR3-IIIb, 1' screening (row head prints IC50)
[9] = target: T3, human FGFR3 IIIb recombinant protein …; assay: direct-binding ELISA on rhFGFR3-IIIb, 2' screening, plate 1 (row head prints IC50)
[10] = target: T3, human FGFR3 IIIb recombinant protein …; assay: direct-binding ELISA on rhFGFR3-IIIb, 2' screening, plate 2 (row head prints IC50); 2' screening, Plate2
[11] = target: T3, human FGFR3 IIIb recombinant protein …; assay: direct-binding ELISA on rhFGFR3-IIIb, 1' screening (row head prints IC50); 1' screening
[12] = target: T1, FGFR3 recombinant protein (isoform not …); assay: competition ELISA (FGFR3 - FGF1 interaction), blocked ligand FGF1
[13] = target: T3, human FGFR3 IIIb recombinant protein …; assay: SPR (Biacore), hFGFR3-iiib immobilised on the chip, antibody injected
Description: SPR analysis was performed to evaluate the binding ability of the produced antibody (IgG) to the FGFR3 subtype and subfamily. The measurement of SRP-based affinity of FGFR3 antibody candidates for the FGFR3 antigen was performed using a Biacore-T200 instrument. The same antigens as described with reference to ELISA binding capacity were directly immobilized on a CM5 biosensor chip by amine coupling to achieve approximately 300 RU. Two-fold serial dilutions were injected at a flow rate of […] at a concentration of approximately 20 nM for an association time of 180 seconds (25° C.) and then separated at the same flow rate for 180 seconds. The CM5 biosensor chip was regenerated by injecting 10 mM glycine-HCl as a buffer between each injection. Association and dissociation rates were calculated using a one-to-one Langmuir binding model. The equilibrium dissociation constant (KD) was calculated as a ratio Koff/Kon (FIG. 5, Table 6).

[14] = target: T6, FGFR3 Ig domain II with Fc tag; assay: ELISA on Fc-tagged FGFR3 constructs (FGFR3 domain mapping), bar Domain#2
Description: as §1, §2

EC50 (read off the curve) [1]: ~0.4 nM
IC50 of ADC on patient-derived spheroid organoids [2]: ≤ 0.3 nM
B1: AMB302 #1.2-TOPOI (other)
VH: EVQLLESGGGLVQPGGSLRLSCAASGFTFSSYDMSWVRQAPGKGLEWVSGIYSGDGSIYYADSVKGRFTISRDNSKNTLYLQMNSLRAEDTAVYYCAKDGPMNEESRFDYWGQGTLVTVSS
VL: QSVLTQPPSASGTPGQRVTISCSGSSSNIGNNYVSWYQQLPGTAPKLLIYADSKRPSGVPDRFSGSKSGTSASLAISGLRSEDEADYYCASWDYSLSGYVFGGGTKLTVL
modifications: topoisomerase I inhibitor linker-payload on cysteines of the fully reduced antibody (positions not given); topoisomerase I inhibitor linker-payload on cysteines of the fully reduced antibody (positions not given), DAR of 6 or higher
notes: also called TOPOI-conjugated ADC; ADC-TOPOI

EC50 [11]: 2190 nM
B3: F309#SSM001 (antibody, V domains shown)
VH: EVQLLESGGGLVQPGGSLRLSCAASGFTFSSYDMSWVRQAPGKGLEWVSGIYSGDGSIYYADSVKGRFTISRDNSKNTLYLQMNSLRAEDTAVYYCAKDYPTNEMSRFDYWGQGTLVTVSS
VL: QSVLTQPPSASGTPGQRVTISCSGSSSNIGNNYVSWYQQLPGTAPKLLIYADSKRPSGVPDRFSGSKSGTSASLAISGLRSEDEADYYCASWDYSLSGYVFGGGTKLTVL

Continued, binder first:

B2: F309 (antibody, V domains shown)
VH: EVQLLESGGGLVQPGGSLRLSCAASGFTFSSYDMSWVRQAPGKGLEWVSGIYSGDGSIYYADSVKGRFTISRDNSKNTLYLQMNSLRAEDTAVYYCAKDAPTNEMSRFDYWGQGTLVTVSS
VL: QSVLTQPPSASGTPGQRVTISCSGSSSNIGNNYVSWYQQLPGTAPKLLIYADSKRPSGVPDRFSGSKSGTSASLAISGLRSEDEADYYCASWDYSLSGYVFGGGTKLTVL
notes: also called F309 antibody; F309 clone
binding result [3]: no binding
Kd [4]: 10.4 nM
Kd [5]: 32.8 nM
Kd [6]: 11.1 nM
binding result [7]: no binding
EC50 [8]: 0.67 nM
EC50 [9]: 80.4 nM
EC50 [10]: 67 nM

B4: B701 (Vofatamab, Rainier Therapeutics) (antibody, V domains shown)
VH: EVQLVESGGGLVQPGGSLRLSCAASGFTFTSTGISWVRQAPGKGLEWVGRIYPTSGSTNYADSVKGRFTISADTSKNTAYLQMNSLRAEDTAVYYCARTYGIYDLYVDYTEYVMDYWGQGTLVTVSS
VL: DIQMTQSPSSLSASVGDRVTITCRASQDVDTSLAWYKQKPGKAPKLLIYSASFLYSGVPSRFSGSGSGTDFTLTISSLQPEDFATYYCQQSTGHPQTFGQGTKVEIK
EC50 [8]: 0.417 nM
IC50 (read off the curve) [12]: ~3 nM

B5: FS313 (antibody, V domains shown)
VH: EVQLLESGGGLVQPGGSLRLSCAASGFTFSGYAMSWVRQAPGKGLEWVSGINWRGATTAYADSLKGRFTISRDNSKNTLYLQMNSLRAEDTAVYYCARSDYGLFDIWGQGTLVTVSS
VL: QSVLTQPPSASGAPGQRVTISCGGNNIGSKSVHWYQQLPGTAPKLLIYQDTKRPSGVPNRFSGSKSGTSASLAISGLRSEDEADYYCQSYDSRQLVFGGGTKLTVL
notes: also called FS313 IgG
binding result [13]: binds

B6: FS306 (antibody, V domains shown)
VH: EVQLLESGGGLVQPGGSLRLSCAASRFTFSDIAMHWVRQAPGKGLEWVSTIYSSDSTYYNPSLKGRFTISRDNSKNTLYLQMNSLRAEDTAVYYCAKGVGYTTSSRFDYWGQGTLVTVSS
VL: EIVLTQGPGTLSLSPGERATLSCRASQSISSYLNWYQQKPGQAPRLLVYDASNRAAGIPDRFSGSGSGTDFTLTISRLEPEDFAVYYCQQYSSFPLTFGQGTKVEIK
notes: also called FS306 antibody; FS306 clone
binding result [3]: no binding
binding result [14]: no binding
